Experimental data: patent publication US20080019962A1 (DYAX CORP A MASSACHUSETTS, published 2008)
Changes are numbered by the printed parent chain.

T1: Trypsinogen-IV (UniProt P35030 81-304)
T1 sequence (looked up): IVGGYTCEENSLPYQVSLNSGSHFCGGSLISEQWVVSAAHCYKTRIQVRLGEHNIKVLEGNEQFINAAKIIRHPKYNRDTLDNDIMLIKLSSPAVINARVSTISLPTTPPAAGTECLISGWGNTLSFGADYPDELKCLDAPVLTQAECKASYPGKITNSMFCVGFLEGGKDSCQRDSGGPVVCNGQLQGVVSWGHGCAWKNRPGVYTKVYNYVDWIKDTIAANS

T2: MTSP-1 (UniProt Q9Y5Y6 615-855, limits assumed)
T2 sequence (looked up): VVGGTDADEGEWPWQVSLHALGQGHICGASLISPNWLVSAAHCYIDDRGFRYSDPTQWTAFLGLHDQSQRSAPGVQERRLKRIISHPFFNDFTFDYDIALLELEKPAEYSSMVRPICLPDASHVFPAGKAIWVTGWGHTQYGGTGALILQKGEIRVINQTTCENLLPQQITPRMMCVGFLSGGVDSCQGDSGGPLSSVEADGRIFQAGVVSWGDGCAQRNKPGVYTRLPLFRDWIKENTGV

B1: D2 IgG1 antibody (Fab D2 reformatted) (antibody, V domains shown)
VH: EVQLLESGGGLVQPGGSLRLSCAASGFTFSRYRMYWVRQAPGKGLEWVSSISPSGGDTRYADSVKGRFTISRDNSKNTLYLQMNSLRAEDTAVYYCARGGPRGNKYYFDYWGQGTLVTVSS
VL: DIQMTQSPSSLSASVGDRVTITCRASQTIDNYLNWYQQKPGKAPKLVVYAASTLQTRVPSRFSGSGSGTDFTLTIDSLKPEDFATYFCQQGFSNPWTFGQGTTVAMIR
B2: F8 IgG1 antibody (Fab F8 reformatted) (antibody, V domains shown)
VH: B1 VH with R33H, Y35W, S50G, P53S, G55R, D57I, R59K
VL: DIQMTQSPGTLSLSPGERVTLSCRASQSVTSSDLAWYQQKPGQAPRLLISGASSRATGIPDRFSGSGSGTDFTLTISRLEPEDFAVYYCQQYGNSPGTFGQGTKVEIKR
B3: A2 IgG1 antibody (Fab A2 reformatted) (antibody, V domains shown)
VH: B1 VH
VL: DIQMTQSPSFLSAFVGDRVTITCRASQDIRSDLAWYQQTPGKAPKLLIYAASTLKDGAPSRFSGSGSGTEFTLTISSLHPEDLATYYCQHLNGHPAFGPGTKVNIQR
B4: H10 IgG1 antibody (Fab H10 reformatted) (antibody, V domains shown)
VH: B1 VH
VL: not shown
B5: C9 IgG1 antibody (Fab C9 reformatted) (antibody, V domains shown)
VH: B1 VH with R33P, Y35F, S50Y, P53S, D57F, R59G
VL: QSVLTQPASVSGSPGQSITISCTGTSSDVGHYNYVSWYQQHPGKAPKVMIYDVSSRPSGVSDRFSGSKSGNTASLAISGLQAEDEADYYCSSYTSGDTLYVFGTGTKVTVLG
B6: B5 IgG1 antibody (Fab B5 reformatted) (antibody, V domains shown)
VH: B1 VH
VL: SYELTQPPSVSVSLGQAANISCSGDRLGDKYTSWYQQQSGQSPVLVIYQDKKRPSGIPERFSGSSSGNTATLTISGAQAIDEAAYYCQAWATNVVFGAGTKLTVLG
B7: D5 IgG1 antibody (Fab D5 reformatted) (antibody, V domains shown)
VH: EVQLLESGGGLVQPGGSLRLSCAASGFTFSRYDMHWVRQAPGKGLEWVSSISSSGGYTAYADSVKGRFTISRDNSKNTLYLQMNSLRAEDTAVYYCARGARGTSQGYWGQGTLVTVSS
VL: DIQMTQSPGTLSLSPGERGTLSCRASQFVSYSYLAWYQQKPGQAPRLLIYGASSRAKGIPDRFSGSGSGTDFTLTITRLEPEDFAVYYCQQYVPSVPWTFGQGTKVEVKR

Each binder was assayed against MTSP-7 (assay: cell-based or functional assay).

| Binder | activity against protease in selectivity screen (enzyme assay) [%] |
| --- | --- |
| B1 | < 5 |
| B2 | < 5 |
| B3 | < 5 |
| B4 | < 5 |
| B5 | < 5 |
| B6 | < 5 |
| B7 | < 5 |

Each binder was assayed against MTSP-10 (assay: cell-based or functional assay).

| Binder | activity against protease in selectivity screen (enzyme assay) [%] |
| --- | --- |
| B1 | < 5 |
| B2 | < 5 |
| B3 | < 5 |
| B4 | < 5 |
| B5 | < 5 |
| B6 | < 5 |
| B7 | < 5 |

What follows are binders tested against T1, Trypsinogen-IV (assay: cell-based or functional assay).

| Binder | activity against protease in selectivity screen (enzyme assay) [%] |
| --- | --- |
| B1 | < 5 |
| B2 | < 5 |
| B3 | < 5 |
| B4 | < 5 |
| B5 | < 5 |
| B6 | < 5 |
| B7 | < 5 |

The binders below were run against T2, MTSP-1 (assay: cell-based or functional assay).

| Binder | activity against protease in selectivity screen (enzyme assay) [%] |
| --- | --- |
| B1 | < 5 |
| B3 | < 5 |
| B5 | < 5 |
| B6 | < 5 |
| B7 | < 5 |

These binders were tested against MTSP-6 (assay: cell-based or functional assay).

| Binder | activity against protease in selectivity screen (enzyme assay) [%] |
| --- | --- |
| B1 | < 5 |
| B2 | < 5 |
| B3 | < 5 |
| B4 | < 5 |
| B5 | < 5 |
| B6 | < 5 |
| B7 | < 5 |

The binders below were run against Endotheliase-1 (ET1) (assay: cell-based or functional assay).

| Binder | activity against protease in selectivity screen (enzyme assay) [%] |
| --- | --- |
| B1 | < 5 |
| B2 | < 5 |
| B3 | < 5 |
| B4 | < 5 |
| B5 | < 5 |
| B6 | < 5 |
| B7 | < 5 |
